In this data set the target is Cpf1 (FnCpf1, FTN_1397) wild type (Francisella novicida U112, UniProt A0Q7Q2 SEQ:1-1300). Description: EMSA; PAM YTN (TTA); 37 C. Conditions: tags: N-terminal 6xHis (pET-16b); label: 5'-32P; repeat hairpin. (In general: In EMSA bound probe runs differently from free probe, usually more slowly.)
Chain of Cpf1 (FnCpf1, FTN_1397) wild type (A0Q7Q2 whole entry): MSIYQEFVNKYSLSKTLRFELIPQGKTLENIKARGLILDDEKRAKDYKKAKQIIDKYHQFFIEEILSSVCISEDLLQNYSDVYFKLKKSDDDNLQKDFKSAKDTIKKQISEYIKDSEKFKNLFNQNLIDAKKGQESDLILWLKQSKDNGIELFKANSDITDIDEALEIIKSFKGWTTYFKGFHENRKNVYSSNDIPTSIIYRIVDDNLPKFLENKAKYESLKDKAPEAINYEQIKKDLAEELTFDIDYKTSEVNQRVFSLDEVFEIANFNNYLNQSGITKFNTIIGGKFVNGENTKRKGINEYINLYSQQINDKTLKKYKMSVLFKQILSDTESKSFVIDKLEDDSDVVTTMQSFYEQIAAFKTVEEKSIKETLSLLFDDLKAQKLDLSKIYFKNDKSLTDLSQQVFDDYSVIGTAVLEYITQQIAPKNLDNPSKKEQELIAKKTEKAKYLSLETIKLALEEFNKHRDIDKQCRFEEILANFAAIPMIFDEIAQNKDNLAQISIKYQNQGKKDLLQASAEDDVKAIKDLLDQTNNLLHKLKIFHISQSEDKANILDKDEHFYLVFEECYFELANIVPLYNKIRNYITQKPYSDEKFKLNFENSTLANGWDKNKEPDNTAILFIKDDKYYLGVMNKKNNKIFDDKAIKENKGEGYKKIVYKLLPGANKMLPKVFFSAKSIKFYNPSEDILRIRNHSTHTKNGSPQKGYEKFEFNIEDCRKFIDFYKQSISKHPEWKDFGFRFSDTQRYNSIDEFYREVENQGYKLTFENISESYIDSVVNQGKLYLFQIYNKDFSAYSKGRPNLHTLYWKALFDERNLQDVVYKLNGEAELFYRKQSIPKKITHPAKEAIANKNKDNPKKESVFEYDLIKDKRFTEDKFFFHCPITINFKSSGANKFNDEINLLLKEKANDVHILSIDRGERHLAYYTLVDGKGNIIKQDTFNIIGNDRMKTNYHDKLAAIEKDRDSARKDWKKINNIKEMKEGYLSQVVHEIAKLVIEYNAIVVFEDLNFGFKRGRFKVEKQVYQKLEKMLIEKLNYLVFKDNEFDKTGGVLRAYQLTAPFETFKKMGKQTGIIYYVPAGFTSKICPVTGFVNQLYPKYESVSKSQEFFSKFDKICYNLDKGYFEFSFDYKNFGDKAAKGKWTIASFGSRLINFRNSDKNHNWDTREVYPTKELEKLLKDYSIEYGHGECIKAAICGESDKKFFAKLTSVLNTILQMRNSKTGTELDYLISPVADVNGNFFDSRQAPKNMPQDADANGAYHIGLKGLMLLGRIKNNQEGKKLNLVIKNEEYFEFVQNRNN

B1: crRNA-sp5 repeat-spacer full-length (RNA 4); ref is antisense T7 transcription template ; Psp5 oligonucleotide duplex (ssRNA ; dsDNA)
RNA: GGGUCUAAGAACUUUAAAUAAUUUCUACUGUUGUAGAUAGAUUAAAAGGUAAUUCUAUCUUGUUGAG
DNA 1: AGCTGTAGCAAATATTAATCATATAGAAGAAAGCTCAGATCTCAACAAGATAGAATTACCTTTTAATCTTAAATTATTATATCCAGAAACTATTGATGGTAATTTACTTATC
DNA 2: AGCTGATAAGTAAATTACCATCAATAGTTTCTGGATATAATAATTTAAGATTAAAAGGTAATTCTATCTTGTTGAGATCTGAGCTTTCTTCTATATGATTAATATTTGCTAC
Broadly, the Kd is the equilibrium constant for the complex coming apart. Consider B1, for which binding was characterised by a dissociation constant (Kd) of 50 nM. In other words, the double-digit nanomolar range.

(Values after patent US20190048340 (CRISPR Therapeutics AG, published 2019).)
